Source: US20150307616A1 (APEXIGEN, published 2015)
One block for each binder: values may come before it.

Assays:
[1] = target: T1, human CD40 on the cell surface (human, UniProt P25942 21-277); assay: cell-based or functional assay
[2] = target: T1, human CD40 on the cell surface; assay: cell-based or functional assay; remark: listed apart in the source
human CD40 = target: T2, human CD40 (human, UniProt P25942 21-193, limits assumed); assay: method not stated
T2 construct: also called immobilized human CD40
T2 sequence (P25942 21-193 limits assumed): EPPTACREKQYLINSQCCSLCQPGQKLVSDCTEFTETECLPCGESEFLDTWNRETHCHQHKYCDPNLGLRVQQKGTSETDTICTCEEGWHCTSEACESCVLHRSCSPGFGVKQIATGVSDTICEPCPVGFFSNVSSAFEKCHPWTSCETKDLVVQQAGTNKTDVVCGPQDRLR

[3] = target: T3, mouse CD40 on mouse A20 cells (mouse, UniProt P27512 20-289); assay: FACS on mouse A20 cells, goat anti-human IgG (H+L)-R-PE
T3 construct: whole, on cells; also called A20 cell line which expresses mouse CD40
T3 sequence (P27512 20-289): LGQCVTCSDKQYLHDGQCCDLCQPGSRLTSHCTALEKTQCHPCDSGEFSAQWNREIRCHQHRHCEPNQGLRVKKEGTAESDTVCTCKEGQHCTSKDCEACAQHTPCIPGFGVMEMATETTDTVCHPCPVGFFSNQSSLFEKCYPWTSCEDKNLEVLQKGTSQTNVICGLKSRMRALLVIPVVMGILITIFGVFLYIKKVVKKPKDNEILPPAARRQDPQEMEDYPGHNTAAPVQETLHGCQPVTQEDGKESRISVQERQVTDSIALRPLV
Experimental: Cross-reactivity of APX005 with mouse CD40 was further determined by FACS binding to a mouse A20 cell line which expresses mouse CD40. An aliquot of 0.5×10⁶ A20 cells was added to 96 well plates and incubated with 100 μl diluted rat anti-mouse CD40 antibody conjugated with PE, APX005 or IgG1 control antibodies. After washing, 100 μl Goat-anti human IgG (H+L) conjugated with R-PE (Southern Biotech CAT#2040-09) were added at 1:200 dilution in PBS to the sample and incubated for detection of APX005 and control human IgG1. A rat anti-mouse CD40 antibody conjugated with PE was used as positive control. Samples were re-suspended with 0.5 ml PBS and analyzed by FACS.

[4] = target: T1, human CD40 on the cell surface; assay: FACS on Ramos cells, 4 h at 37 C, Alexa 488 goat anti-human IgG
Experimental: (§1) In order to assess the target mediated-internalization of APX005 for evaluating its impact on ADCC activity, Ramos cells were incubated with APX005 for 4 h at 37° C., a temperature permissive for internalization, or at 4° C. for 30 minutes, a temperature at which internalization is minimized. Cells were washed with staining buffer, followed by incubation with Alexa 488 labeled goat anti-human IgG for an additional 30 minutes at 4° C. FACS analysis was performed to examine the level of APX005 on the cell surface.

[5] = target: T1, human CD40 on the cell surface; assay: FACS on Ramos cells, 30 minutes at 4 C, Alexa 488 goat anti-human IgG
Experimental: as §1

[6] = target: T4, mouse CD40 (coated protein) (mouse, UniProt P27512 20-193, limits assumed); assay: direct ELISA by the text (1 ug/ml CD40 coated, goat anti-human IgG-HRP); the axis of the sheet is labelled MFI
T4 construct: Coated at 1 µg/ml on ELISA plates
T4 sequence (P27512 20-193 limits assumed): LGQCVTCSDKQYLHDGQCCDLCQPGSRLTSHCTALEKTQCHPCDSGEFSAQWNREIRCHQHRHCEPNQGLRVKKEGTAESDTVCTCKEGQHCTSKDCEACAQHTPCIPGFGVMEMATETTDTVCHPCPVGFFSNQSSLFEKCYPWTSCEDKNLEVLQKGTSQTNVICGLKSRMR
Experimental: Cross-reactivity was assessed by direct ELISA. A total of 1 μg/ml of human CD40, monkey CD40 or mouse CD40 was coated on ELISA plates followed by incubation with […] of APX005 or control IgG1. Antibodies bound to CD40 were detected using goat anti-human IgG conjugated with HRP. APX005 clearly crossreacts with monkey CD40 but not mouse CD40. (FIG. 11A)

T1 sequence (P25942 21-277): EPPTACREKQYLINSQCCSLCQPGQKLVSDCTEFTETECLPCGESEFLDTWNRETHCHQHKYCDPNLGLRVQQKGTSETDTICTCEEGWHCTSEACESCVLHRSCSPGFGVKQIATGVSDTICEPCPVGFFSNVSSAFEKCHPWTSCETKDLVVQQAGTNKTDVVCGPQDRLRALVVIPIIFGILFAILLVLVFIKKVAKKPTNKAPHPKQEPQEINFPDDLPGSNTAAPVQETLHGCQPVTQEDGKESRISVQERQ

CD83 expression on human monocyte-derived DC (DC maturation assay) [1]: > 50%
B1: 19-21 rabbit anti-CD40 antibody (antibody, V domains shown)
VH: QSLEESGGRLVTPGTPLTLTCTVSGFDLSSNAMNWVRQAPGKGLEWIGYITISGSAGYASWAKGRFTISKTSTTVDLKISSPTTEDTATYFCARGYNTMAIWGPGTLVTVSS
VL: AQVLTQTPSPVSAPVGGTVTINCQSSQNVLINNRLAWYQQKPGQPPKLLIYDASKLASGVPSRFKGSGSGTQFTLTISGVQCDDAATYYCQAGYSSGDGNAFGGGTEVVVK

Pro-apoptosis activity (IC50) [2]: 0.02 µg/mL
B2: c19-21 chimeric anti-CD40 antibody (antibody, V domains shown)
VH: QSLEESGGRLVTPGTPLTLTCTVSGFDLSSNAMNWVRQAPGKGLEWIGYITISGSAGYASWAKGRFTISKTSTTVDLKISSPTTEDTATYFCARGYNTMAIWGPGTLVTVSS
VL: AQVLTQTPSPVSAPVGGTVTINCQSSQNVLINNRLAWYQQKPGQPPKLLIYDASKLASGVPSRFKGSGSGTQFTLTISGVQCDDAATYYCQAGYSSGDGNAFGGGTEVVVK
ADCC (% cytotoxicity of Ramos cell at 1 µg/ml) [2]: 26%

CD83 expression on human monocyte-derived DC (DC maturation assay) [1]: > 50%
B3: R-16 rabbit anti-CD40 antibody (antibody, V domains shown)
VH: QSLEESGGGLVKPGGTLTLTCKASGFSLNYYWPCWVRQAPGKGLEWVACLNGGDSDTTVYARWAKGRFTISKASSTTVTLQMTSLTAADTATYFCARYIIPGYHFNLWGPGTLVTVSS
VL: AYDMTQTPASVSAAVGDTVTIKCQASQSISSYLYWYQQKPGQPPKLLIYQASKLASGVPSRFKGSGSGTEYTLTISDLECADVATYYCQQGYSHINVDNIFGGGFQVVVK

CD83 expression on human monocyte-derived DC (DC maturation assay) [1]: > 50%
B4: R-3 rabbit anti-CD40 antibody (antibody, V domains shown)
VH: QSLEESGGDLVKPGASLTLTCTASGFSFSDSFWIAWVRQAPGKGLEWIGCIHALSSGSTYYANWARGRFTISKTSSTTVTLQMNSLTAADTATYFCARSYAGYADYNVATGLNLWGPGTLVTVSS
VL: DVVMTQTPSSASAAVGGTVTTKCQASQSIGSYLAWYQQKPGQRPKLLIYAASNLASGVPSRFKGSRSGTEYTLTISGVQREDAATYYCLGSFTGSDTTFGGGTELEIL

Pro-apoptosis activity (IC50) [2]: 0.57 µg/mL
B5: cR-3 chimeric anti-CD40 antibody (antibody, V domains shown)
VH: QSLEESGGDLVKPGASLTLTCTASGFSFSDSFWIAWVRQAPGKGLEWIGCIHALSSGSTYYANWARGRFTISKTSSTTVTLQMNSLTAADTATYFCARSYAGYADYNVATGLNLWGPGTLVTVSS
VL: DVVMTQTPSSASAAVGGTVTTKCQASQSIGSYLAWYQQKPGQRPKLLIYAASNLASGVPSRFKGSRSGTEYTLTISGVQREDAATYYCLGSFTGSDTTFGGGTELEIL
ADCC (% cytotoxicity of Ramos cell at 1 µg/ml) [2]: 30%

Pro-apoptosis activity (IC50) [2]: 0.45 µg/mL
B6: cR-8 chimeric anti-CD40 antibody (antibody, V domains shown)
VH: QSLEESGGDLVKPGASLTLTCTASGFSFSSTYVCWVRQAPGKGLEWIACIYTGDGTNYSASWAKGRFTISKPSSTTVTLQMTSLTPADTATYFCARPDITYGFAINFWGPGTLVTVSS
VL: DIVMTQTPSSASEPVGGTVTIKCQASQSISSRLAWYQQKPGQPPKLLIYRASTLASGVPSRFKGSGSGTEFTLTISDLECADAATYYCQCTGYGISWPIGGGTEVVVK
ADCC (% cytotoxicity of Ramos cell at 1 µg/ml) [2]: 33%

CD83 expression on human monocyte-derived DC (DC maturation assay) [1]: > 50%
B7: R-9 rabbit anti-CD40 antibody (antibody, V domains shown)
VH: QSLEESGGDLVKPGASLTLTCTASRFSFSSTYMCWVRQAPGKGLEWIACTYTGSSGGTYYASWAKGRFTISQTSSTTVTLQLTGLTPADTATYFCARPDVGFDFAINFWGPGTLVTVSS
VL: DIVMTQTPSSASEPVGGTVTIKCQASQSISSRLAWYQQKPGQPPKLLIYRASTLASGVSSRFKGSGSGTQFTLTISDLECADAATYYCQCTGYTISWPFGGGTEVVVK

Kd (human CD40): 0.96 nM | binding result [3]: no binding (tested: 10000 ng/ml) | EC50 (read off the curve) [4]: ~0.05 µg/mL | EC50 (read off the curve) [5]: ~0.05 µg/mL | binding result [6]: no binding
B8: APX005 humanized anti-CD40 antibody (antibody, IgG1, V domains shown)
VH: QVQLVESGGGVVQPGRSLRLSCAASGFSFSSTYVCWVRQAPGKGLEWIACIYTGDGTNYSASWAKGRFTISKDSSKNTVYLQMNSLRAEDTAVYFCARPDITYGFAINFWGPGTLVTVSS
VL: DIQMTQSPSSLSASVGDRVTIKCQASQSISSRLAWYQQKPGKPPKLLIYRASTLASGVPSRFSGSGSGTDFTLTISSLQPEDVATYYCQCTGYGISWPIGGGTKVEIK
notes: also called humanized R-8

CD83 expression on human monocyte-derived DC (DC maturation assay) [1]: > 50%
B9: R-6 rabbit anti-CD40 antibody (antibody, V domains shown)
VH: GGSLTLTGTASGFSFSSSYSMCWVRQAPGKGLEWIGCIDTGRGYTYHASGAKGRFTFSKTSSTTVTLQMTSLTAADTATYFCARSSYVRYDNRNYGFNLWGPGTLVTVSS
VL: DIVMTQTPASVEAAVGGTITINCQASESISSWLSWYQQKPGQRPKLLIYYTSNLASGVPSRFKGSGAGTDFTLTISDLECADAATYYCQSNYGSSSSTYYGFGGGTEVVVK

CD83 expression on human monocyte-derived DC (DC maturation assay) [1]: > 50%
B10: 19-45 rabbit anti-CD40 antibody (antibody, V domains shown)
VH: QSVEESGGRLVTPGTPLTLNCTVSGFSLSSYDMNWVRQAPGKGLEWIGVIWNNGEIFYASWAKGRFTISKTSTTVDLKITSPSTEDTATYFCAGDADGGVVSYFHVWGPGTLVTVSS
VL: AYDMTQTPASVEVAVGGTVTIKCQASQTIYTYLAWYLQKPGQPPKLLIYEASKLASGVSSRFEGSGSGTQFTLTISGVQCDDAATYYCQQGYNSRHVDNVFGGGTEVVVK

CD83 expression on human monocyte-derived DC (DC maturation assay) [1]: > 50%
B11: R-18 rabbit anti-CD40 antibody (antibody, V domains shown)
VH: QSLEESGGDLVKPGASLTLTCTASGIDFSSYYYMCWVRQAPGKGLEWIGCIYAGSGSTYYASWAKGRFTISKTSSTTVTLQMTSLTAADTATYFCARSGYNDGSYYNLWGPGTLVTVSS
VL: DIVMTQTPSSVEAAVGGTVTIKCQASQSIYTWLAWYQQKPGQPPKLLIYKASTLASGVPSRFKGSGSGTDYTLTISDLECDDAATYYCQRYSWNGSYGVSFGGGTEVVVR

CD83 expression on human monocyte-derived DC (DC maturation assay) [1]: > 50%
B12: R-36 rabbit anti-CD40 antibody (antibody, V domains shown)
VH: QQQLVESGGGLVKPGASLTLTCKASGFSFSSTYWICWVRQAPGKGLEWIGCINSDDSGTNVYANWAKGRFTISKASSTTVTLQMTSLTAADTATYFCARYPIPGYHFNLWGPGTLVTVSS
VL: AYDMTQTPASVEVAVGGTVTIKCQASQNIYGYLFWYQQKPGQPPNLLIAEASKLPSGVPSRFKGSGSGTEYSLTISGVECADAATYYCQQSYSHINVDNIFGGGTEVVVK

Pro-apoptosis activity (IC50) [2]: 0.9 µg/mL
B13: cR-33 chimeric anti-CD40 antibody (antibody, V domains shown)
VH: QSLEESGGDLVKPGASLTLTCTASGFSFSSSYWICWVRQAPGKGLEWIACINTGSSVTTVYARWAKGRFTISKASSTTVTLQMTSLTAADTATYFCARYIIPGYNFNLWGPGTLVTVSS
VL: AYDMTQTPASVEVAVGGTVTINCQASQSISSYLYWYQQKPGQPPKLLIYDASKLASGVPSRFKGSGSGTQFTLTITGVECADAATYYCQQGYSHINVDNIFGGGTEVVVK
ADCC (% cytotoxicity of Ramos cell at 1 µg/ml) [2]: 29%

CD83 expression on human monocyte-derived DC (DC maturation assay) [1]: > 50%
B14: R-33 rabbit anti-CD40 antibody (antibody, V domains shown)
VH: QSLEESGGDLVKPGASLTLTCTASGFSFSSSYWICWVRQAPGKGLEWIACINTGSSVTTVYARWAKGRFTISKASSTTVTLQMTSLTAADTATYFCARYIIPGYNFNLWGPGTLVTVSS
VL: AYDMTQTPASVEVAVGGTVTINCQASQSISSYLYWYQQKPGQPPKLLIYDASKLASGVPSRFKGSGSGTQFTLTITGVECADAATYYCQQGYSHINVDNIFGGGTEVVVK

CD83 expression on human monocyte-derived DC (DC maturation assay) [1]: > 50%
B15: R-24 rabbit anti-CD40 antibody (antibody, V domains shown)
VH: QSLEESGGDLVKPGASLTLTCTASGFSFSRGYYICWVRQAPGKGLEWIACIGAGSGGTYFASWAKGRFSISRTSSTTVTLQMTSLTAADTATYFCAREDAGNDDYGYARNLWGPGTLVTVSS
VL: DIVMTQTPASVSAAVGGTVTINCQASESAYTLLAWYQQKPGQPPKLLIYGASILESGVPSRFKGSGSGTDFTLTISDLECADAATYYCQSHYFGSSSGYANTFGGGTEVVVK

CD83 expression on human monocyte-derived DC (DC maturation assay) [1]: > 50%
B16: 19-59 rabbit anti-CD40 antibody (antibody, V domains shown)
VH: QSVEESGGRLVTPGTPLTLTCTVSGFSLSDYVMRWVRQAPGKGLEWIGVISSAGNTYYATWAKDRFTISKTSTTVDLRIASPTTEDTATYFCARIWRPDDPTNSDIWGPGTLVTVSS
VL: DVVMTQTPSSTSAAVGGTVTIKCQASESISSSLAWYQQKPGQPPKLLIYYASDLASGVPSRFSGSRSGTEYTLTISGVQREDAATYYCLGGYATAAYRTAFGGGTELEIL
